Reference: article PMC2868174

Target: ERK2 (UniProt P63086)
Experiment: steady-state kinetics, forward and reverse reaction
Conditions: reference: unphosphorylated Ets; sites T38

other: Km: same; reference 18.0 ± 2.0
Substance: Ets-1 (Ets; residues 1–138) 1-138 (from UniProt P27577) p-Ets (ERK2-phosphorylated, Mono-Q purified)
